The text below walks through data of patent US20250027068.

To fix the notation:
B1: PRT-140 (protein)
chain: MRNATEAYAKEVPHQITSVWTKGVTPLTPEQFRYNNEDVIHAPYLAHQGWYDITKAFNGKDNLLCGAATAGNMLHWWFDQNKTEIEAYLSKHPEKQKIIFNNQELFDLKAAIDTKDSQTNSQLFNYFRDKAFPNLSARQLGVMPDLVLDMFINGYYLNVFKTQSTDVNRPYQDKDKRGGIFDAVFTRGDQTTLLTARHDLKNKGLNDISTIIKQELTEGRALALSHTYANVSISHVINLWGADFNAEGNLEAIYVTDSDANASIGMKKYFVGINAHGHVAISAKKIEGENIGAQVLGLFTLSSGKDIWQKLS
B2: PRT-142 (protein)
chain: B1 chain with I40F, N58D
B3: PRT-141 (protein)
chain: B1 chain with N58D, H276A
B4: PRT-155 (protein)
chain: MANQEIRYSEVTPYHVTSVWTDGVTPPANFTQGEDVFHAPYVANQGWYDITKTFNGKDDLLCGAATAGNMLHWWFDQNSTQIEAYLKKHPEKQKINFNGEQMFDVKEAIDTKNHQLDSKLFEYFKEKAFPYLSTKHLGVFPDHVIDMFINGYRLSLTNHGPTPVKEGSKDPRGGIFDAVFTRGDQSKLLTSRHDFKEKNLKEISDLIKKELTEGKALGLSHTYANVRINHVINLWGADFDSNGNLKAIYVTDSDSNASIGMKKYFVGVNSAGKVAISAKEIKEDNIGAQVLGLFTLSTGKKSWEKTN
B5: PRT-148 (protein)
chain: MANQEIRYSEVTPYHVTSVWTKGVTPPANFTQGEDVFHAPYVANQGWYDITKTFNGKDDLLCGAATAGNMLHWWFDQNKDQIKRYLEEHPEKQKINFNGEQMFDVKEAIDTKNHQLDSKLFEYFKEKAFPYLSTKHLGVFPDHVIDMFINGYRLSLTNHGPTPVKRQSKDPRGGIFDAVFTRGDQSKLLTSRHDFKEKNLKEISDLIKKELTEGKALGLSHTYANVRINHVINLWGADFDSNGNLKAIYVTDSDSNASIGMKKYFVGVNSAGKVAISAKEIKEDNIGAQVLGLFTLSTGQDSWNKTN
B6: PRT-153 (protein)
chain: B4 chain with D22K, S79K, A84R, K301D, E304K
B7: PRT-154 (protein)
chain: B4 chain with D22K, S79K
B8: PRT-151 (protein)
chain: B5 chain with E91D, S168T, T181G, Q185S, S186T, D301K
B9: PRT-156 (protein)
chain: B5 chain with A28T, N29D, V42K, R166E, Q167G, K305Q
B10: PRT-157 (protein)
chain: B5 chain with A28E, N29D, V42K, R166E, Q167G, K305Q
B11: PRT-149 (protein)
chain: B5 chain with S168T, T181G, S186T, D301K
B12: PRT-152 (protein)
chain: B4 chain with D22K, S79K, A84R, K301D
B13: PRT-158 (protein)
chain: B5 chain with A28T, N29D, T31I, Q32K, V42K, N44H, R166E, Q167G, T212Q, K305Q
B14: PRT-150 (protein)
chain: B5 chain with S168E, T181G, S186T, D301K
B15: PRT-13 (protein)
chain: MANQEIRYSEETPYHVTSVWTKGVTPPANFTQGEDVFHAPYKANQGWYDITKTFNGKDDLLCGAATAGNMLHWWFDQNKDQIEAYLKEHPEKQKINFNGEQMFDVKEAIDTKDDQTNSKLFEYFKEKAFPYLSTKHLGVFPDHVLDMFINGYRLSLTNHGPTPVKEGSKDPRGGIFDAVFTRGDQSKLLTSRHDFKEKTLKEISDLIKQELTEGKALALSHTYANVRINHVINLWGADFDSNGNLEAIYVTDSDSNASIGMKKYFVGVNSAGKVAISAKEIEDDNIGAQVLGLFTLSTGQDIWNQTN
B16: PRT-143 (protein)
chain: MANQEIRYSEVTPYHITSVWTKGVTPPANFTQGEDVFHAPYVANQGWYDITKTFNGKDDLLCGAATAGNMLHWWFDQNKDQIKRYLEEHPEKQKINFNGEQMFDVKEAIDTKNHQLDSKLFEYFKEKAFPYLSTKHLGVFPDHVIDMFINGYRLSLTNHGPTPVKEGSKDPRGGIFDAVFTRGDQSKLLTSRHDFKEKTLNEISQLIKQELTEGKALGLSHTYANVRINHVINLWGADFDAEGNLEAIYVTDSDSNASIGMKKYFVGVNSAGKVAISAKEIKEDNIGAQVLGLFTLSTGQDSWNQTN
B17: PRT-144 (protein)
chain: B16 chain with E202D, T212Q, E213S, V268K
B18: PRT-147 (protein)
chain: B16 chain with T17K, S18I, E202D, T212Q, E213S, V268K
B19: PRT-145 (protein)
chain: B16 chain with E202T, T212Q, E213S, V268K
B20: PRT-146 (protein)
chain: B16 chain with T17K, S18T, E202D, T212Q, E213S, V268K

Changes are numbered by the printed parent chain.

The data set concerns the target pooled human IgG.
For the protein B1, the Enzyme Activity Endpoint Assay (purified): Fab'2 came out at 755 ng/µL, the Enzyme Activity Endpoint Assay (purified): Fc amounted to 213 ng/µL, the Enzyme Activity Endpoint Assay (purified): IgG was determined as 0 ng/µL and the Enzyme Activity Endpoint Assay (purified): scIgG is 0 ng/µL.
B2: the Enzyme Activity Endpoint Assay (purified): Fab'2 was determined as 589 ng/µL, the Enzyme Activity Endpoint Assay (purified): Fc amounted to 135 ng/µL, the Enzyme Activity Endpoint Assay (purified): IgG turned out to be 0 ng/µL and the Enzyme Activity Endpoint Assay (purified): scIgG amounted to 0 ng/µL.
Protein B3 had an Enzyme Activity Endpoint Assay (purified): Fab'2 of 846 ng/µL, an Enzyme Activity Endpoint Assay (purified): Fc of 215 ng/µL, an Enzyme Activity Endpoint Assay (purified): IgG of 0 ng/µL and an Enzyme Activity Endpoint Assay (purified): scIgG of 0 ng/µL.
Protein B4 returned an Enzyme Activity Endpoint Assay (purified): Fab'2 of 751 ng/µL, an Enzyme Activity Endpoint Assay (purified): Fc of 197 ng/µL, an Enzyme Activity Endpoint Assay (purified): IgG of 0 ng/µL and an Enzyme Activity Endpoint Assay (purified): scIgG of 18 ng/µL.
Taken in the same sequence, the figures for B5 were 764 ng/µL, 203 ng/µL, 0 ng/µL and 0 ng/µL.
Taken in the same sequence, the figures for B6 were 619 ng/µL, 190 ng/µL, 0 ng/µL and 0 ng/µL.
For B7 the same measures were 733 ng/µL, 191 ng/µL, 0 ng/µL and 0 ng/µL.
Protein B8 had an Enzyme Activity Endpoint Assay (purified): Fab'2 of 521 ng/µL, an Enzyme Activity Endpoint Assay (purified): Fc of 137 ng/µL, an Enzyme Activity Endpoint Assay (purified): IgG of 0 ng/µL and an Enzyme Activity Endpoint Assay (purified): scIgG of 0 ng/µL.
B9 had an Enzyme Activity Endpoint Assay (purified): Fab'2 of 772 ng/µL, an Enzyme Activity Endpoint Assay (purified): Fc of 205 ng/µL, an Enzyme Activity Endpoint Assay (purified): IgG of 0 ng/µL and an Enzyme Activity Endpoint Assay (purified): scIgG of 0 ng/µL.
In the case of B10, the Enzyme Activity Endpoint Assay (purified): Fab'2 came out at 806 ng/µL, the Enzyme Activity Endpoint Assay (purified): Fc is 198 ng/µL, the Enzyme Activity Endpoint Assay (purified): IgG was found to be 0 ng/µL and the Enzyme Activity Endpoint Assay (purified): scIgG is 0 ng/µL.
B11 gave an Enzyme Activity Endpoint Assay (purified): Fab'2 of 831 ng/µL, an Enzyme Activity Endpoint Assay (purified): Fc of 0 ng/µL, an Enzyme Activity Endpoint Assay (purified): IgG of 0 ng/µL and an Enzyme Activity Endpoint Assay (purified): scIgG of 0 ng/µL.
B12: the Enzyme Activity Endpoint Assay (purified): Fab'2 was found to be 614 ng/µL, the Enzyme Activity Endpoint Assay (purified): Fc was 158 ng/µL, the Enzyme Activity Endpoint Assay (purified): IgG was 0 ng/µL and the Enzyme Activity Endpoint Assay (purified): scIgG turned out to be 0 ng/µL.
For B13, the Enzyme Activity Endpoint Assay (purified): Fab'2 is 637 ng/µL, the Enzyme Activity Endpoint Assay (purified): Fc amounted to 163 ng/µL, the Enzyme Activity Endpoint Assay (purified): IgG worked out at 0 ng/µL and the Enzyme Activity Endpoint Assay (purified): scIgG was determined as 0 ng/µL.
On to B14, for which the Enzyme Activity Endpoint Assay (purified): Fab'2 came to 612 ng/µL, the Enzyme Activity Endpoint Assay (purified): Fc turned out to be 161 ng/µL, the Enzyme Activity Endpoint Assay (purified): IgG was 0 ng/µL and the Enzyme Activity Endpoint Assay (purified): scIgG was found to be 0 ng/µL.
In turn, B15 had an Enzyme Activity Endpoint Assay: Fab′2 of 2 ng/µL, an Enzyme Activity Endpoint Assay: Fc of 74 ng/µL, an Enzyme Activity Endpoint Assay: IgG of 12 ng/µL and an Enzyme Activity Endpoint Assay: scIgG of 66 ng/µL.
Regarding B16, the Enzyme Activity Endpoint Assay (purified): Fab'2 came to 576 ng/µL, the Enzyme Activity Endpoint Assay (purified): Fc stood at 170 ng/µL, the Enzyme Activity Endpoint Assay (purified): IgG came to 0 ng/µL and the Enzyme Activity Endpoint Assay (purified): scIgG was found to be 0 ng/µL.
In turn, B17 had an Enzyme Activity Endpoint Assay (purified): Fab'2 of 562 ng/µL, an Enzyme Activity Endpoint Assay (purified): Fc of 151 ng/µL, an Enzyme Activity Endpoint Assay (purified): IgG of 0 ng/µL and an Enzyme Activity Endpoint Assay (purified): scIgG of 26 ng/µL.
B18 had an Enzyme Activity Endpoint Assay (purified): Fab'2 of 723 ng/µL, an Enzyme Activity Endpoint Assay (purified): Fc of 206 ng/µL, an Enzyme Activity Endpoint Assay (purified): IgG of 0 ng/µL and an Enzyme Activity Endpoint Assay (purified): scIgG of 0 ng/µL.
Consider B19, for which the Enzyme Activity Endpoint Assay (purified): Fab'2 was 735 ng/µL, the Enzyme Activity Endpoint Assay (purified): Fc came out at 207 ng/µL, the Enzyme Activity Endpoint Assay (purified): IgG is 0 ng/µL and the Enzyme Activity Endpoint Assay (purified): scIgG came out at 0 ng/µL.
Regarding B20, the Enzyme Activity Endpoint Assay (purified): Fab'2 is 672 ng/µL, the Enzyme Activity Endpoint Assay (purified): Fc worked out at 215 ng/µL, the Enzyme Activity Endpoint Assay (purified): IgG amounted to 0 ng/µL and the Enzyme Activity Endpoint Assay (purified): scIgG was determined as 0 ng/µL.
